Reference: PMC8411744, “Engineering a Highly Efficient Carboligase for Synthetic One-Carbon Metabolism” (ACS Catalysis, 2021)

How the values were obtained:
[1] = target: T1, MeOXC (OXC, oxalyl-CoA decarboxylase) (Methylorubrum extorquens, UniProt C5AX46, E135G/A415C/Y497F/S568G); assay: X-ray crystal structure, […] Å; type: binding; conditions: MeOXC4; Mg2+; C-terminus beyond E567 modelled
T1 construct: gene MexAM1_META1p0990; recombinant, produced in E. coli; purified; homotetramer; ThDP and Mg2+ dependent
Source text: Substitution E135G gave rise to a cavity in the ThDP binding pocket

[2] = target: T2, MeOXC (OXC, oxalyl-CoA decarboxylase) (Methylorubrum extorquens, UniProt C5AX46); assay: X-ray crystal structure, […] Å; type: binding; conditions: Mg2+; C-terminal 16 residues modelled
T2 construct: gene MexAM1_META1p0990; recombinant, produced in E. coli; purified; homotetramer; ThDP and Mg2+ dependent

[3] = substrate: CC(C)(COP(=O)(O)OP(=O)(O)OC[C@H]1O[C@@H](n2cnc3c(N)ncnc32)[C@H](O)[C@@H]1OP(=O)(O)O)[C@@H](O)C(=O)NCCC(=O)NCCSC(=O)CO; assay: CoA transfer from glycolyl-CoA to formate, Michaelis-Menten; type: biochemical, Clostridium aminobutyricum; conditions: formate 25 mM as acceptor
Source text: CoA transfer from glycolyl-CoA to formate, Michaelis-Menten on AbfT (4-hydroxybutyrate CoA-transferase) | AbfT).

[4] = substrate: CC(C)(COP(=O)(O)OP(=O)(O)OC[C@H]1O[C@@H](n2cnc3c(N)ncnc32)[C@H](O)[C@@H]1OP(=O)(O)O)[C@@H](O)C(=O)NCCC(=O)NCCSC(=O)C(=O)O; assay: oxalyl-CoA decarboxylation kinetics; type: biochemical, Methylorubrum extorquens; conditions: MeOXC4
[5] = substrate: CC(C)(COP(=O)(O)OP(=O)(O)OC[C@H]1O[C@@H](n2cnc3c(N)ncnc32)[C@H](O)[C@@H]1OP(=O)(O)O)[C@@H](O)C(=O)NCCC(=O)NCCSC=O; assay: steady-state kinetics, glycolyl-CoA synthase (carboligation) activity; type: biochemical, Methylorubrum extorquens; conditions: co-substrate formaldehyde, apparent
Source text: (§1) steady-state kinetics, glycolyl-CoA synthase (carboligation) activity on MeOXC (OXC, oxalyl-CoA decarboxylase)

[6] = substrate: C=O; assay: as above; type: biochemical, Methylorubrum extorquens; conditions: co-substrate formyl-CoA, apparent
Source text: as §1

With Cc1ncc(C[n+]2csc(CCOP(=O)(O)OP(=O)(O)O)c2C)c(N)n1 [ThDP] the “X-ray crystal structure, 2.4 Å” value [1] was “Active site of MeOXC4. Substitution E135G gave rise to a cavity in the ThDP binding pocket” and the “X-ray crystal structure, 1.9 Å” value [2] was “The overall structure of MeOXC with bound ThDP (orange)”.

B1: AbfT (4-hydroxybutyrate CoA-transferase) (Clostridium aminobutyricum) (protein)
chain: MDWKKIYEDRTCTADEAVKSIKSGDRVLFAHCVAEPPVLVEAMVANAAAYKNVTVSHMVTLGKGEYSKPEYKENFTFEGWFTSPSTRGSIAEGHGQFVPVFFHEVPSLIRKDIFHVDVFMVMVSPPDHNGFCCVGVSSDYTMQAIKSAKIVLAEVNDQVPVVYGDTFVHVSEIDKFVETSHPLPEIGLPKIGEVEAAIGKHCASLIEDGSTLQLGIGAIPDAVLSQLKDKKHLGIHSEMISDGVVDLYEAGVIDCSQKSIDKGKMAITFLMGTKRLYDFAANNPKVELKPVDYINHPSVVAQCSKMVCINACLQVDFMGQIVSDSIGTKQFSGVGGQVDFVRGASMSIDGKGKAIIAMPSVAKKKDGSMISKIVPFIDHGAAVTTSRNDADYVVTEYGIAEMKGKSLQDRARALINIAHPDFKDELKAEFEKRFNAAF
notes: purified
B1 was tested, and the Km [3] was 12 ± 1 µM and the kcat [3] was 0.40 ± 0.01 s^–1.

B2: MeOXC (OXC, oxalyl-CoA decarboxylase) (Methylorubrum extorquens AM1; A415C/E135G/S568G/Y497F) (protein)
chain: MTVQAQNIDAITAGAMPHEEPELTDGFHLVIDALKLNGIETIYNVPGIPITDLGRLAQAEGLRVISFRHEQNAGNAAAIAGFLTKKPGICLTVSAPGFLNGLTALANATTNCFPMILISGSSEREIVDLQQGDYGEMDQLAIAKPLCKAAFRVLHAADIGIGVARAIRAAVSGRPGGVYLDLPAKLFSQVIDADLGARSLVKVIDAAPAQLPAPAAIARALDVLKSAERPLIILGKGAAYAQADEAVRALVEESGIPYVPMSMAKGLLPDTHPLSAGAARSTALKDSDVVLLVGARLNWLLSHGKGKTWGEPGSKRFIQIDIEPREMDSNVEIVAPVVGDIGSCVEALLDGIRKDWKGAPSNWLETLRGKREANIAKMAPKLMKNSSPMCFHSALGALRTVIKERPDAILVNEGCNTLDLARGIIDMYQPRKRLDVGTWGVMGIGMGFAVAAAVETGKPVLAVEGDSAFGFSGMEVETICRYELPVCIVIFNNNGIFRGTDTDPTGRDPGTTVFVKNSRYDKMMEAFGGVGVNVTTPDELKRAVDEAMNSGKPTLINAEIDPAAGSEGGNIGSLNPQSTLKKK
notes: recombinant, produced in E. coli; purified; homotetramer; ThDP and Mg2+ dependent
B2 was tested, and the Km [4] was 122 ± 16 µM, the kcat [4] was 0.21 ± 0.01 s^–1 and the Km ([5]; MeOXC4) was 220 ± 30 µM. It also gave a kcat ([5]; MeOXC4) of 2.4 ± 0.2 s⁻¹, a kcat/Km ([5]; MeOXC4) of 11000 M⁻¹ s⁻¹ and a Km ([6]; MeOXC4) of 5000 ± 1000 µM. The kcat ([6]; MeOXC4) was 2 ± 0.2 s⁻¹ and the kcat/Km ([6]; MeOXC4) was 400 M⁻¹ s⁻¹.

B3: MeOXC (OXC, oxalyl-CoA decarboxylase) (Methylorubrum extorquens AM1; A415C) (protein)
chain: MTVQAQNIDAITAGAMPHEEPELTDGFHLVIDALKLNGIETIYNVPGIPITDLGRLAQAEGLRVISFRHEQNAGNAAAIAGFLTKKPGICLTVSAPGFLNGLTALANATTNCFPMILISGSSEREIVDLQQGDYEEMDQLAIAKPLCKAAFRVLHAADIGIGVARAIRAAVSGRPGGVYLDLPAKLFSQVIDADLGARSLVKVIDAAPAQLPAPAAIARALDVLKSAERPLIILGKGAAYAQADEAVRALVEESGIPYVPMSMAKGLLPDTHPLSAGAARSTALKDSDVVLLVGARLNWLLSHGKGKTWGEPGSKRFIQIDIEPREMDSNVEIVAPVVGDIGSCVEALLDGIRKDWKGAPSNWLETLRGKREANIAKMAPKLMKNSSPMCFHSALGALRTVIKERPDAILVNEGCNTLDLARGIIDMYQPRKRLDVGTWGVMGIGMGFAVAAAVETGKPVLAVEGDSAFGFSGMEVETICRYELPVCIVIFNNNGIYRGTDTDPTGRDPGTTVFVKNSRYDKMMEAFGGVGVNVTTPDELKRAVDEAMNSGKPTLINAEIDPAAGSESGNIGSLNPQSTLKKK
notes: as for B2
Molecule B3 has a Km ([5]; MeOXC1) of 160 ± 50 µM, a kcat ([5]; MeOXC1) of 0.23 ± 0.01 s⁻¹ and a kcat/Km ([5]; MeOXC1) of 1400 M⁻¹ s⁻¹. It also gave a Km ([6]; MeOXC1) of 30000 ± 2000 µM, a kcat ([6]; MeOXC1) of 0.34 ± 0.01 s⁻¹ and a kcat/Km ([6]; MeOXC1) of 10 M⁻¹ s⁻¹.

B4: MeOXC (OXC, oxalyl-CoA decarboxylase) (Methylorubrum extorquens AM1) (protein)
chain: MTVQAQNIDAITAGAMPHEEPELTDGFHLVIDALKLNGIETIYNVPGIPITDLGRLAQAEGLRVISFRHEQNAGNAAAIAGFLTKKPGICLTVSAPGFLNGLTALANATTNCFPMILISGSSEREIVDLQQGDYEEMDQLAIAKPLCKAAFRVLHAADIGIGVARAIRAAVSGRPGGVYLDLPAKLFSQVIDADLGARSLVKVIDAAPAQLPAPAAIARALDVLKSAERPLIILGKGAAYAQADEAVRALVEESGIPYVPMSMAKGLLPDTHPLSAGAARSTALKDSDVVLLVGARLNWLLSHGKGKTWGEPGSKRFIQIDIEPREMDSNVEIVAPVVGDIGSCVEALLDGIRKDWKGAPSNWLETLRGKREANIAKMAPKLMKNSSPMCFHSALGALRTVIKERPDAILVNEGANTLDLARGIIDMYQPRKRLDVGTWGVMGIGMGFAVAAAVETGKPVLAVEGDSAFGFSGMEVETICRYELPVCIVIFNNNGIYRGTDTDPTGRDPGTTVFVKNSRYDKMMEAFGGVGVNVTTPDELKRAVDEAMNSGKPTLINAEIDPAAGSESGNIGSLNPQSTLKKK
notes: as for B2
B4 was tested, and the Km ([5]; concentrations in Table S4) was 3000 ± 2000 µM, the kcat ([5]; concentrations in Table S4) was 0.31 ± 0.08 s⁻¹ and the kcat/Km ([5]; concentrations in Table S4) was 100 M⁻¹ s⁻¹. The Km ([6]; concentrations in Table S4) was 100000 ± 20000 µM, the kcat ([6]; concentrations in Table S4) was 0.2 ± 0.01 s⁻¹ and the kcat/Km ([6]; concentrations in Table S4) was 2 M⁻¹ s⁻¹.

B5: MeOXC (OXC, oxalyl-CoA decarboxylase) (Methylorubrum extorquens AM1; A415C/E135G/S568G) (protein)
chain: MTVQAQNIDAITAGAMPHEEPELTDGFHLVIDALKLNGIETIYNVPGIPITDLGRLAQAEGLRVISFRHEQNAGNAAAIAGFLTKKPGICLTVSAPGFLNGLTALANATTNCFPMILISGSSEREIVDLQQGDYGEMDQLAIAKPLCKAAFRVLHAADIGIGVARAIRAAVSGRPGGVYLDLPAKLFSQVIDADLGARSLVKVIDAAPAQLPAPAAIARALDVLKSAERPLIILGKGAAYAQADEAVRALVEESGIPYVPMSMAKGLLPDTHPLSAGAARSTALKDSDVVLLVGARLNWLLSHGKGKTWGEPGSKRFIQIDIEPREMDSNVEIVAPVVGDIGSCVEALLDGIRKDWKGAPSNWLETLRGKREANIAKMAPKLMKNSSPMCFHSALGALRTVIKERPDAILVNEGCNTLDLARGIIDMYQPRKRLDVGTWGVMGIGMGFAVAAAVETGKPVLAVEGDSAFGFSGMEVETICRYELPVCIVIFNNNGIYRGTDTDPTGRDPGTTVFVKNSRYDKMMEAFGGVGVNVTTPDELKRAVDEAMNSGKPTLINAEIDPAAGSEGGNIGSLNPQSTLKKK
notes: as for B2
Molecule B5 has a Km ([5]; MeOXC3) of 170 ± 40 µM, a kcat ([5]; MeOXC3) of 1.6 ± 0.1 s⁻¹ and a kcat/Km ([5]; MeOXC3) of 9400 M⁻¹ s⁻¹. The Km ([6]; MeOXC3) was 12000 ± 3000 µM, the kcat ([6]; MeOXC3) was 1.6 ± 0.1 s⁻¹ and the kcat/Km ([6]; MeOXC3) was 130 M⁻¹ s⁻¹.

B6: MeOXC (OXC, oxalyl-CoA decarboxylase) (Methylorubrum extorquens AM1; A415C/S568G) (protein)
chain: MTVQAQNIDAITAGAMPHEEPELTDGFHLVIDALKLNGIETIYNVPGIPITDLGRLAQAEGLRVISFRHEQNAGNAAAIAGFLTKKPGICLTVSAPGFLNGLTALANATTNCFPMILISGSSEREIVDLQQGDYEEMDQLAIAKPLCKAAFRVLHAADIGIGVARAIRAAVSGRPGGVYLDLPAKLFSQVIDADLGARSLVKVIDAAPAQLPAPAAIARALDVLKSAERPLIILGKGAAYAQADEAVRALVEESGIPYVPMSMAKGLLPDTHPLSAGAARSTALKDSDVVLLVGARLNWLLSHGKGKTWGEPGSKRFIQIDIEPREMDSNVEIVAPVVGDIGSCVEALLDGIRKDWKGAPSNWLETLRGKREANIAKMAPKLMKNSSPMCFHSALGALRTVIKERPDAILVNEGCNTLDLARGIIDMYQPRKRLDVGTWGVMGIGMGFAVAAAVETGKPVLAVEGDSAFGFSGMEVETICRYELPVCIVIFNNNGIYRGTDTDPTGRDPGTTVFVKNSRYDKMMEAFGGVGVNVTTPDELKRAVDEAMNSGKPTLINAEIDPAAGSEGGNIGSLNPQSTLKKK
notes: as for B2
Work on B6 yielded a Km ([5]; MeOXC2) of 90 ± 20 µM, a kcat ([5]; MeOXC2) of 0.43 ± 0.02 s⁻¹ and a kcat/Km ([5]; MeOXC2) of 5100 M⁻¹ s⁻¹. For the same molecule, the Km ([6]; MeOXC2) was 12000 ± 3000 µM, the kcat ([6]; MeOXC2) was 0.57 ± 0.05 s⁻¹ and the kcat/Km ([6]; MeOXC2) was 50 M⁻¹ s⁻¹.
